In US20160024487A1, “THROMBIN SENSITIVE COAGULATION FACTOR X MOLECULES” (NOVO NORDISK A/S, priority 2013, published 2016):
“And” between values parts separate entries of the source, which are not always exact repeats. Equal values may be shown once. Where no end group is shown, it is not given here. The star is where a group is joined. Dnp = O=[N+]([O-])c1ccc(*)c([N+](=O)[O-])c1; 2Abz = Nc1ccccc1C(=O)O

Key:
[1] = target: T1, Human plasma purified Factor Xa (Homo sapiens, UniProt P00742); assay: Factor Xa cleavage kinetics of quenched fluorescence (QF) peptide substrates, progress curve; assay type: biochemical; settings: for Specificity Ratio (FIIa/FXa): FIIa kcat/KM divided by FXa kcat/KM, natural sequence QF substrates; for specificity ratio: X4/X3 positional scanning QF library (Table 4), FIIa/FXa
T1 construct: purchased Molecular Innovations, Inc, Novi Mich., USA; host or cells: human plasma

[2] = target: Human plasma purified α-thrombin (Homo sapiens, UniProt P00734); assay: Thrombin cleavage kinetics of quenched fluorescence (QF) peptide substrates, progress curve; assay type: biochemical; settings: for Fold-Improved (FpA): kcat/KM relative to FpA substrate Lys(Dnp)-DFLAEGGGVRIVGG-Lys(Abz); for Fold-Improved (PAR-1): kcat/KM relative to PAR 1 control substrate Lys(Dnp)-ATNATLDPRIVGG-Lys(Abz)

T1 sequence (P00742 41-179 limits assumed): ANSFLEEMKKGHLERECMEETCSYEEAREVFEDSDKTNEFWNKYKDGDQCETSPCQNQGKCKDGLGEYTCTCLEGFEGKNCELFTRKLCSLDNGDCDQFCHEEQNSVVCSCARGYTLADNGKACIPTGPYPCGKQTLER
T1 sequence (P00742 235-488 limits assumed): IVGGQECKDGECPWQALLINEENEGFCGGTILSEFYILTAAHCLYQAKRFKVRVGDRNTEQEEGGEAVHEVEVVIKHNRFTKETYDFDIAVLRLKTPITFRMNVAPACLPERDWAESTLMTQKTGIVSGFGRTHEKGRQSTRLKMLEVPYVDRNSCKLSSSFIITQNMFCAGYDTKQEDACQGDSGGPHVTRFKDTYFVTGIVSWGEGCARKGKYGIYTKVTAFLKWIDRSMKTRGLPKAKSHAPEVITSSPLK

Substance | Specificity Ratio (FIIa/FXa) [1] | Fold-Improved (FpA) [2] | Fold-Improved (PAR-1) [2] | specificity ratio [1]
Antithrombin: QF substrate Lys(Dnp)-X10-X1-IVGG-Lys(Abz), X10-X1 = ASTAVVIAGR (K(Dnp)ASTAVVIAGRIVGGK(2Abz)) | 0 | 0.001 | 0.000 | –
Factor V (1): QF substrate Lys(Dnp)-X10-X1-IVGG-Lys(Abz), X10-X1 = HTHHAPLSPR (K(Dnp)HTHHAPLSPRIVGGK(Abz)) | 2 | 77.2 | 11.2 | –
Factor V (3): QF substrate Lys(Dnp)-X10-X1-IVGG-Lys(Abz), X10-X1 = PDNIAAWYLR (K(Dnp)PDNIAAWYLRIVGGK(2Abz)) | 7 | 0.2 | 0.03 | –
Factor VIII (1): QF substrate Lys(Dnp)-X10-X1-IVGG-Lys(Abz), X10-X1 = LSKNNAIEPR (K(Dnp)LSKNNAIEPRIVGGK(2Abz)) | – | 32.3 | 4.7 | –
Factor VIII (2): QF substrate Lys(Dnp)-X10-X1-IVGG-Lys(Abz), X10-X1 = YDEDENQSPR (K(Dnp)YDEDENQSPRIVGGK(2Abz)) | 13 | 2.3 | 0.3 | –
Factor XIII: QF substrate Lys(Dnp)-X10-X1-IVGG-Lys(Abz), X10-X1 = TVELQGVVPR (K(Dnp)TVELQGVVPRIVGGK(Abz)) | 114 | 28.7 | 4.2 | –
FpA_P: QF substrate Lys(Dnp)-X10-X1-IVGG-Lys(Abz), X10-X1 = DFLAEGGGPR; FpA with proline at X2 (K(Dnp)DFLAEGGGPRIVGGK(2Abz)) | 6914 | 97.8 | 14.2 | –
FpB: QF substrate Lys(Dnp)-X10-X1-IVGG-Lys(Abz), X10-X1 = DNEEGFFSAR (K(Dnp)DNEEGFFSARIVGGK(2Abz)) | 1 | 0.7 | 0.1 | –
Osteopontin: QF substrate Lys(Dnp)-X10-X1-IVGG-Lys(Abz), X10-X1 = RGDSVVYGLR (K(Dnp)RGDSVVYGLRIVGGK(Abz)) | 239 | 1.0 | 0.1 | –
PAR1 (3): QF substrate with X6-X1 = ATLDPR, prime side IVGG (KATLDPRIVGGK) | 4 | – | – | –
PAR 1: QF substrate Lys(Dnp)-X10-X1-IVGG-Lys(Abz), X10-X1 = KATNATLDPR (Table 3 r16) (K(Dnp)ATNATLDPRIVGGK(2Abz); also: template implies Lys(Dnp) before X10 K, letters have one K, taken as Lys(Dnp)) | – | 9.7 and 8.9 and 8.2 | 1.4 and 1.3 and 1.2 | –
PAR 3: QF substrate Lys(Dnp)-X10-X1-IVGG-Lys(Abz), X10-X1 = NLAKPTLPIK (K(Dnp)NLAKPTLPIKIVGGK(2Abz)) | 5 | 0.04 | 0.01 | –
PAR 4: QF substrate Lys(Dnp)-X10-X1-IVGG-Lys(Abz), X10-X1 = STPSILPAPR (K(Dnp)STPSILPAPRIVGGK(2Abz)) | 40 | 23.1 | 3.4 | –
TAFI: QF substrate Lys(Dnp)-X10-X1-IVGG-Lys(Abz), X10-X1 = QISNDTVSPR (K(Dnp)QISNDTVSPRIVGGK(Abz)) | 16 | 13.1 | 1.9 | –
Thrombin (1): QF substrate Lys(Dnp)-X10-X1-IVGG-Lys(Abz), X10-X1 = DQVTVAMTPR (K(Dnp)DQVTVAMTPRIVGGK(2Abz)) | 64 | 73.6 | 10.7 | –
Thrombin (2): QF substrate Lys(Dnp)-X10-X1-IVGG-Lys(Abz), X10-X1 = SEYQTFFNPR (K(Dnp)SEYQTFFNPRIVGGK(Abz)) | 0 | 48.7 | 7.1 | –
WTPR: QF library substrate Lys(Dnp)-ATNATX4X3PRIVGG-Lys(Abz) with X4-X1 = WTPR (K(Dnp)ATNATWTPRIVGGK(2Abz)) | – | – | – | ~300 fold

More lines, now with the values ahead:

Specificity Ratio (FIIa/FXa) [1] | Fold-Improved (FpA) [2] | Fold-Improved (PAR-1) [2] | specificity ratio [1] | Substance
302 | 1.8 | 0.3 | – | Factor V (2): QF substrate Lys(Dnp)-X10-X1-IVGG-Lys(Abz), X10-X1 = NRLAAALGIR (K(Dnp)NRLAAALGIRIVGGK(2Abz))
559 | 49.2 | 7.1 | – | Factor XI: QF substrate Lys(Dnp)-X10-X1-IVGG-Lys(Abz), X10-X1 = NESTTKIKPR (K(Dnp)NESTTKIKPRIVGGK(2Abz))
121 | – | – | – | Lys(Dnp)-DFLAEGGGVRIVGG-Lys(Abz) (K(Dnp)DFLAEGGGVRIVGGK(2Abz)) [FpA, reference compound]
– | – | – | ~300 fold | MKPR: QF library substrate Lys(Dnp)-ATNATX4X3PRIVGG-Lys(Abz) with X4-X1 = MKPR (K(Dnp)ATNATMKPRIVGGK(2Abz))
– | – | – | ~300 fold | MTPR: QF library substrate Lys(Dnp)-ATNATX4X3PRIVGG-Lys(Abz) with X4-X1 = MTPR (K(Dnp)ATNATMTPRIVGGK(2Abz))
4 | – | – | – | PAR1 (2): QF substrate with X8-X1 = TNATLDPR, prime side IVGG (KTNATLDPRIVGGK)
133 | 4.4 | 0.6 | – | Protein C: QF substrate Lys(Dnp)-X10-X1-IVGG-Lys(Abz), X10-X1 = EDQEDQVDPR (K(Dnp)EDQEDQVDPRIVGGK(2Abz))
141 | 0.000 | 0.000 | – | Thrombin (3): QF substrate Lys(Dnp)-X10-X1-IVGG-Lys(Abz), X10-X1 = EDSDRAIEGR (K(Dnp)EDSDRAIEGRIVGGK(2Abz))
